Measured values from patent US10590397B2 (priority 2017, dated 2020).
“And” between values parts separate entries of the source, which are not always exact repeats. Identical values can stand only once. Like-named read-outs stand apart in the source and are kept apart here.

Columns and labels:
[1] = DON as substrate; Michlmayr, et al., 2015; cited from earlier work
[2] = assay type: biochemical, Fusarium
[3] = assay type: biochemical, Fusarium; remark: listed apart in the source

B1: Os79 (protein, listed as Oryza sativa)
chain: MGSMSTPAASANGGQVLLLPFPAAQGHTNPMLQFGRRLAYHGLRPTLVTTRYVLSTTPPPGDPFRVAAISDGFDDASGMAALPDPGEYLRTLEAHGARTLAELLLSEARAGRPARVLVYDPHLPWARRVARAAGVATAAFLSQPCAVDLIYGEVCARRLALPVTPTDARGLYARGVLGVELGPDDVPPFVAAPELTPAFCEQSIEQFAGLEDDDDVLVNSFSDLEPKEAAYMESTWRAKTIGPSLPSFYLDDGRLRSNTAYGFNLFRSTVPCMEWLDKQPPRSVVLVSYGTVSTFDVAKLEELGNGLCNSGKPFLWVVRSNEEHKLSVQLRKKCEKRGLIVPFCPQLEVLAHKATGCFLSHCGWNSTLEAIVNGVPLVAMPHWADQPTISKYVESLWGMGVRVQLDKSGILQREEVERCIREVMDGDRKEDYRRNATRLMKKAKESMQEGGSSDKNIAEFAAKYSN
Q: With B1 as the molecule, how does the Km [1] read?
A: 230 µM

Q: And the kcat [1]?
A: 0.57 s⁻¹

B2: Os79 H122A/L123A (protein, listed as Oryza sativa)
chain: MGSMSTPAASANGGQVLLLPFPAAQGHTNPMLQFGRRLAYHGLRPTLVTTRYVLSTTPPPGDPFRVAAISDGFDDASGMAALPDPGEYLRTLEAHGARTLAELLLSEARAGRPARVLVYDPAAPWARRVARAAGVATAAFLSQPCAVDLIYGEVCARRLALPVTPTDARGLYARGVLGVELGPDDVPPFVAAPELTPAFCEQSIEQFAGLEDDDDVLVNSFSDLEPKEAAYMESTWRAKTIGPSLPSFYLDDGRLRSNTAYGFNLFRSTVPCMEWLDKQPPRSVVLVSYGTVSTFDVAKLEELGNGLCNSGKPFLWVVRSNEEHKLSVQLRKKCEKRGLIVPFCPQLEVLAHKATGCFLSHCGWNSTLEAIVNGVPLVAMPHWADQPTISKYVESLWGMGVRVQLDKSGILQREEVERCIREVMDGDRKEDYRRNATRLMKKAKESMQEGGSSDKNIAEFAAKYSN
Q: Which Km [2] does the source give for B2 here?
A: 926 µM

Q: What about the kcat ([2]; 23° C.) of the same molecule?
A: 1.6 s⁻¹

B3: Os79 H122A/L123G (protein, listed as Oryza sativa)
chain: MGSMSTPAASANGGQVLLLPFPAAQGHTNPMLQFGRRLAYHGLRPTLVTTRYVLSTTPPPGDPFRVAAISDGFDDASGMAALPDPGEYLRTLEAHGARTLAELLLSEARAGRPARVLVYDPAGPWARRVARAAGVATAAFLSQPCAVDLIYGEVCARRLALPVTPTDARGLYARGVLGVELGPDDVPPFVAAPELTPAFCEQSIEQFAGLEDDDDVLVNSFSDLEPKEAAYMESTWRAKTIGPSLPSFYLDDGRLRSNTAYGFNLFRSTVPCMEWLDKQPPRSVVLVSYGTVSTFDVAKLEELGNGLCNSGKPFLWVVRSNEEHKLSVQLRKKCEKRGLIVPFCPQLEVLAHKATGCFLSHCGWNSTLEAIVNGVPLVAMPHWADQPTISKYVESLWGMGVRVQLDKSGILQREEVERCIREVMDGDRKEDYRRNATRLMKKAKESMQEGGSSDKNIAEFAAKYSN
Q: With B3 as the molecule, how does the Km [2] read?
A: 512 µM

Q: And the Km ([3]; 23° C.)?
A: 2500 µM and 2510 µM

B4: Os79 Q202A (protein, listed as Oryza sativa)
chain: MGSMSTPAASANGGQVLLLPFPAAQGHTNPMLQFGRRLAYHGLRPTLVTTRYVLSTTPPPGDPFRVAAISDGFDDASGMAALPDPGEYLRTLEAHGARTLAELLLSEARAGRPARVLVYDPHLPWARRVARAAGVATAAFLSQPCAVDLIYGEVCARRLALPVTPTDARGLYARGVLGVELGPDDVPPFVAAPELTPAFCEASIEQFAGLEDDDDVLVNSFSDLEPKEAAYMESTWRAKTIGPSLPSFYLDDGRLRSNTAYGFNLFRSTVPCMEWLDKQPPRSVVLVSYGTVSTFDVAKLEELGNGLCNSGKPFLWVVRSNEEHKLSVQLRKKCEKRGLIVPFCPQLEVLAHKATGCFLSHCGWNSTLEAIVNGVPLVAMPHWADQPTISKYVESLWGMGVRVQLDKSGILQREEVERCIREVMDGDRKEDYRRNATRLMKKAKESMQEGGSSDKNIAEFAAKYSN
Q: Which “KM value compared to WT Os79” value [3] does the source give for B4 here?
A: no significant difference

B5: Os79 A384S (protein, listed as Oryza sativa)
chain: MGSMSTPAASANGGQVLLLPFPAAQGHTNPMLQFGRRLAYHGLRPTLVTTRYVLSTTPPPGDPFRVAAISDGFDDASGMAALPDPGEYLRTLEAHGARTLAELLLSEARAGRPARVLVYDPHLPWARRVARAAGVATAAFLSQPCAVDLIYGEVCARRLALPVTPTDARGLYARGVLGVELGPDDVPPFVAAPELTPAFCEQSIEQFAGLEDDDDVLVNSFSDLEPKEAAYMESTWRAKTIGPSLPSFYLDDGRLRSNTAYGFNLFRSTVPCMEWLDKQPPRSVVLVSYGTVSTFDVAKLEELGNGLCNSGKPFLWVVRSNEEHKLSVQLRKKCEKRGLIVPFCPQLEVLAHKATGCFLSHCGWNSTLEAIVNGVPLVAMPHWSDQPTISKYVESLWGMGVRVQLDKSGILQREEVERCIREVMDGDRKEDYRRNATRLMKKAKESMQEGGSSDKNIAEFAAKYSN
Q: With B5 as the molecule, how does the “KM value compared to WT Os79” value [3] read?
A: similar
